Reference: US20200165335A1 (Seagen, published 2020)
Positions count from the first letter of the chain named.

T1: human LIV-1 (human, UniProt Q13433 29-755)
T1 construct: also called hLIV-1; Q13433
T1 sequence: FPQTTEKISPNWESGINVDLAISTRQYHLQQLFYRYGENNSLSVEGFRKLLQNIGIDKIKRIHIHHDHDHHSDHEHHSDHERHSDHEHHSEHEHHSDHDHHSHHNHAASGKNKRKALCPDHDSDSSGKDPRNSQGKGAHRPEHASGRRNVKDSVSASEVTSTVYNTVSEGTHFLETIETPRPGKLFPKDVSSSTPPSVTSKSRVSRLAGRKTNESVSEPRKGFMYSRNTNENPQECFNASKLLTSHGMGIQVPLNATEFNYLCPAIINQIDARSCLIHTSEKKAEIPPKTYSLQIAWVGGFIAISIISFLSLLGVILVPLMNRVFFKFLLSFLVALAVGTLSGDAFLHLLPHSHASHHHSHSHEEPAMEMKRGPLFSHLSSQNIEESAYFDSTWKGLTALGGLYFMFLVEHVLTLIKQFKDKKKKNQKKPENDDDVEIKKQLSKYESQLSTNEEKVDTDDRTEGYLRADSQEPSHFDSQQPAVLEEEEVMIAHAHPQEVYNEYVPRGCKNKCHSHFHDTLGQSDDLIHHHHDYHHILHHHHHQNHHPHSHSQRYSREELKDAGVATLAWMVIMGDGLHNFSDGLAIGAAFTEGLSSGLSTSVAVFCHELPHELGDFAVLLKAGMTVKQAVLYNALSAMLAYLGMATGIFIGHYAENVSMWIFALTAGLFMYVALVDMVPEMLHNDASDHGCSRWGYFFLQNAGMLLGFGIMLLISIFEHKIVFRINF

B1: humanized BR2-14a antibody HALA (antibody, V domains shown)
VH: QVQLVQSGAEVKKPGASVKVSCKASGYTFTDYYMHWVRQAPGQGLEWMGWIDPENGDTEYAPTFQGRVTMTRDTSISTAYMELSRLRSDDTAVYYCARHDAHYGTWFAYWGQGTLVTVSS
VL: DVVMTQSPLSLPVTLGQPASISCRSSQSIIRNDGNTYLEWFQQRPGQSPRRLIYRVSNRFSGVPDRFSGSGSGTDFTLKISRVEAEDVGVYYCFQGSHVPYTFGGGTKVEIKR
notes: also called hLIV-1 HA + hLIV-1 LA
B2: humanized BR2-14a antibody HBLF (antibody, V domains shown)
VH: B1 VH with F29I, T30E, S77N
VL: B1 VL with F41Y, Q42L, R44K, R50K, R51L
notes: also called hLIV-1 HB + hLIV-1 LF
B3: humanized BR2-14a antibody HDLC (antibody, V domains shown)
VH: B1 VH with Y27F, A97N, R98V
VL: B1 VL with Q42L
notes: also called hLIV-1 HD + hLIV-1 LC
B4: humanized BR2-14a antibody HELC (antibody, V domains shown)
VH: QVQLVQSGAEVKKPGASVKVSCKASGFNIEDYYMHWVRQAPGQGLEWIGWIDPENGDTEYAPTFQGKATMTADTSINTAYMELSRLRSDDTAVYYCNVHDAHYGTWFAYWGQGTLVTVSS
VL: B1 VL with Q42L
notes: also called hLIV-1 HE + hLIV-1 LC
B5: humanized BR2-14a antibody HELA (antibody, V domains shown)
VH: B4 VH
VL: B1 VL
notes: also called hLIV-1 HE + hLIV-1 LA
B6: humanized BR2-14a antibody HBLD (antibody, V domains shown)
VH: B1 VH with F29I, T30E, S77N
VL: B1 VL with R50K
notes: also called hLIV-1 HB + hLIV-1 LD
B7: humanized BR2-14a antibody HELD (antibody, V domains shown)
VH: B4 VH
VL: B1 VL with R50K
notes: also called hLIV-1 HE + hLIV-1 LD
B8: humanized BR2-14a antibody HDLD (antibody, V domains shown)
VH: B1 VH with Y27F, A97N, R98V
VL: B1 VL with R50K
notes: also called hLIV-1 HD + hLIV-1 LD
B9: humanized BR2-14a antibody HELB (antibody, V domains shown)
VH: B4 VH
VL: B1 VL with F41Y
notes: also called hLIV-1 HE + hLIV-1 LB
B10: humanized BR2-14a antibody HBLC (antibody, V domains shown)
VH: B1 VH with F29I, T30E, S77N
VL: B1 VL with Q42L
notes: also called hLIV-1 HB + hLIV-1 LC
B11: humanized BR2-14a antibody HBLA (antibody, V domains shown)
VH: B1 VH with F29I, T30E, S77N
VL: B1 VL
notes: also called hLIV-1 HB + hLIV-1 LA
B12: humanized BR2-14a antibody HCLD (antibody, V domains shown)
VH: B1 VH with R67K, V68A, R72A
VL: B1 VL with R50K
notes: also called hLIV-1 HC + hLIV-1 LD
B13: humanized BR2-14a antibody HCLE (antibody, V domains shown)
VH: B1 VH with R67K, V68A, R72A
VL: B1 VL with R51L
notes: also called hLIV-1 HC + hLIV-1 LE
B14: humanized BR2-14a antibody HCLF (antibody, V domains shown)
VH: B1 VH with R67K, V68A, R72A
VL: B1 VL with F41Y, Q42L, R44K, R50K, R51L
notes: also called hLIV-1 HC + hLIV-1 LF
B15: humanized BR2-14a antibody HDLE (antibody, V domains shown)
VH: B1 VH with Y27F, A97N, R98V
VL: B1 VL with R51L
notes: also called hLIV-1 HD + hLIV-1 LE
B16: humanized BR2-14a antibody HCLA (antibody, V domains shown)
VH: B1 VH with R67K, V68A, R72A
VL: B1 VL
notes: also called hLIV-1 HC + hLIV-1 LA
B17: humanized BR2-14a antibody HELF (antibody, V domains shown)
VH: B4 VH
VL: B1 VL with F41Y, Q42L, R44K, R50K, R51L
notes: also called hLIV-1 HE + hLIV-1 LF
B18: humanized BR2-14a antibody HDLB (antibody, V domains shown)
VH: B1 VH with Y27F, A97N, R98V
VL: B1 VL with F41Y
notes: also called hLIV-1 HD + hLIV-1 LB
B19: humanized BR2-14a antibody HCLB (antibody, V domains shown)
VH: B1 VH with R67K, V68A, R72A
VL: B1 VL with F41Y
notes: also called hLIV-1 HC + hLIV-1 LB
B20: humanized BR2-14a antibody HCLC (antibody, V domains shown)
VH: B1 VH with R67K, V68A, R72A
VL: B1 VL with Q42L
notes: also called hLIV-1 HC + hLIV-1 LC
B21: humanized BR2-14a antibody HALF (antibody, V domains shown)
VH: B1 VH
VL: B1 VL with F41Y, Q42L, R44K, R50K, R51L
notes: also called hLIV-1 HA + hLIV-1 LF
B22: humanized BR2-14a antibody HBLE (antibody, V domains shown)
VH: B1 VH with F29I, T30E, S77N
VL: B1 VL with R51L
notes: also called hLIV-1 HB + hLIV-1 LE
B23: humanized BR2-14a antibody HDLA (antibody, V domains shown)
VH: B1 VH with Y27F, A97N, R98V
VL: B1 VL
notes: also called hLIV-1 HD + hLIV-1 LA
B24: humanized BR2-14a antibody HDLF (antibody, V domains shown)
VH: B1 VH with Y27F, A97N, R98V
VL: B1 VL with F41Y, Q42L, R44K, R50K, R51L
notes: also called hLIV-1 HD + hLIV-1 LF
B25: humanized BR2-14a antibody HALC (antibody, V domains shown)
VH: B1 VH
VL: B1 VL with Q42L
notes: also called hLIV-1 HA + hLIV-1 LC
B26: humanized BR2-14a antibody HALD (antibody, V domains shown)
VH: B1 VH
VL: B1 VL with R50K
notes: also called hLIV-1 HA + hLIV-1 LD
B27: humanized BR2-14a antibody HALE (antibody, V domains shown)
VH: B1 VH
VL: B1 VL with R51L
notes: also called hLIV-1 HA + hLIV-1 LE
B28: humanized BR2-14a antibody HALB (antibody, V domains shown)
VH: B1 VH
VL: B1 VL with F41Y
notes: also called hLIV-1 HA + hLIV-1 LB
B29: humanized BR2-22a antibody HCLD (antibody, V domains shown)
VH: B1 VH with A61G, T63K, R67K, V68A, R72A, D100N
VL: B1 VL with I29L, I30L, R31H, N32S, D33S, R50K, R55K, V56I, N58T
notes: also called hLIV-22 HC + hLIV-22 LD
B30: humanized BR2-22a antibody HBLB (antibody, V domains shown)
VH: B1 VH with F29I, T30E, A61G, T63K, S77N, D100N
VL: B1 VL with I29L, I30L, R31H, N32S, D33S, F41Y, R55K, V56I, N58T
notes: Not the same molecule as HBLB of the BR2-14a series (hLIV14); also called hLIV-22 HB + hLIV-22 LB
B31: humanized BR2-22a antibody HCLC (antibody, V domains shown)
VH: B1 VH with A61G, T63K, R67K, V68A, R72A, D100N
VL: B1 VL with I29L, I30L, R31H, N32S, D33S, Q42L, R55K, V56I, N58T
notes: also called hLIV-22 HC + hLIV-22 LC
B32: humanized BR2-22a antibody HALF (antibody, V domains shown)
VH: B1 VH with A61G, T63K, D100N
VL: DVVMTQSPLSLPVTLGQPASISCRSSQSLLHSSGNTYLEWYLQRPGQSPKPLIYKISTRFSGVPDRFSGSGSGTDFTLKISRVEAEDVGVYYCFQGSHVPYTFGGGTKVEIKR
notes: also called hLIV-22 HA + hLIV-22 LF
B33: humanized BR2-22a antibody HELA (antibody, V domains shown)
VH: B4 VH with F27L, A61G, T63K, N97T, D100N
VL: B32 VL with Y41F, L42Q, K50R, P51R
notes: also called hLIV-22 HE + hLIV-22 LA
B34: humanized BR2-22a antibody HBLF (antibody, V domains shown)
VH: B1 VH with F29I, T30E, A61G, T63K, S77N, D100N
VL: B32 VL
notes: also called hLIV-22 HB + hLIV-22 LF
B35: humanized BR2-22a antibody HDLF (antibody, V domains shown)
VH: B1 VH with Y27L, A61G, T63K, A97T, R98V, D100N
VL: B32 VL
notes: also called hLIV-22 HD + hLIV-22 LF

biological target: T1, human LIV-1; assay: competition flow cytometry, CHO cells expressing human LIV-1, vs 5 nM AF647-labelled BR2-14a
Procedure: 1×10⁵ CHO cells expressing recombinant human LIV-1 in PBS/BSA were aliquoted into each well of a 96-well v-bottom plates on ice. […] Cells were pelleted and washed 3 times with PBS/BSA. The cells were pelleted and resuspended in 125 μL of PBS/BSA. Fluorescence was analyzed by flow cytometry, using percent of saturated fluorescent signal to determine percent labeled murine LIV-1 mAb bound and to subsequently extrapolate the EC50 by fitting the data to a sigmoidal dose-response curve with variable slope.

Row | Binder | binding result | EC50
1 | B1 | no binding (tested: 0.038 nM to 600 nM tested) | 
2 | B2 |  | 0.7 µg/mL
3 | B3 | no binding (tested: 0.038 nM to 600 nM tested) | 
4 | B4 | no binding (tested: 0.038 nM to 600 nM tested) | 
5 | B5 |  | 12.5 µg/mL
6 | B6 |  | 17.4 µg/mL
7 | B7 |  | 24.2 µg/mL
8 | B8 |  | 67.9 µg/mL
9 | B9 |  | 173 µg/mL
10 | B10 |  | 44 µg/mL
11 | B11 |  | 19.9 µg/mL
12 | B12 |  | 66.6 µg/mL
13 | B13 | no binding (tested: 0.038 nM to 600 nM tested) | 
14 | B14 |  | 1.3 µg/mL
15 | B15 | no binding (tested: 0.038 nM to 600 nM tested) | 
16 | B16 | no binding (tested: 0.038 nM to 600 nM tested) | 
17 | B17 |  | 1.5 µg/mL
18 | B18 |  | 2.3 µg/mL
19 | B19 |  | 1.8 µg/mL
20 | B20 | no binding (tested: 0.038 nM to 600 nM tested) | 
21 | B21 |  | 8.8 µg/mL
22 | B22 | no binding (tested: 0.038 nM to 600 nM tested) | 
23 | B23 | no binding (tested: 0.038 nM to 600 nM tested) | 
24 | B24 |  | 1.4 µg/mL
25 | B25 |  | 25.5 µg/mL
26 | B26 |  | 4.9 µg/mL
27 | B27 | no binding (tested: 0.038 nM to 600 nM tested) | 
28 | B28 |  | 37.8 µg/mL

biological target: T1, human LIV-1; assay: competition flow cytometry, CHO cells expressing recombinant LIV-1, vs 5 nM AF647-labelled BR2-22a
Procedure: 1×10⁵ CHO cells expressing recombinant LIV-1 in PBS were aliquoted into each well of a 96-well v-bottom plates on ice. […] Cells were pelleted and washed 3 times with PBS. The cells were then pelleted and resuspended in 125 μL of PBS/BSA. Fluorescence was analyzed by flow cytometery, using percent of saturated fluorescent signal to determine percent labeled humanized BR2-22a antibody bound and to subsequently extrapolate the EC50 by fitting the data to a sigmoidal dose-response curve with variable slope.
All permutations of these five heavy chains and six light chains were then tested in a competition assay compared with BR2-22a (see FIG. 17).

Row | Binder | binding result | EC50
29 | B29 | no binding (tested: 0.038 nM to 600 nM tested) | 
30 | B30 |  | 4.9 µg/mL
31 | B31 | no binding (tested: 0.038 nM to 600 nM tested) | 
32 | B32 |  | 33.2 µg/mL
33 | B33 |  | 68.2 µg/mL
34 | B34 |  | 6.5 µg/mL
35 | B35 |  | 14.4 µg/mL
